Here are results for one variant from IntAct's records for PubMed 19732724.

To fix the notation:
B1: Tensin-3 (Homo sapiens), Q68CZ2 (parent)
chain: MEEGHGLDLTYITERIIAVSFPAGCSEESYLHNLQEVTRMLKSKHGDNYLVLNLSEKRYDLTKLNPKIMDVGWPELHAPPLDKMCTICKAQESWLNSNLQHVVVIHCRGGKGRIGVVISSYMHFTNVSASADQALDRFAMKKFYDDKVSALMQPSQKRYVQFLSGLLSGSVKMNASPLFLHFVILHGTPNFDTGGVCRPFLKLYQAMQPVYTSGIYNVGPENPSRICIVIEPAQLLKGDVMVKCYHKKYRSATRDVIFRLQFHTGAVQGYGLVFGKEDLDNASKDDRFPDYGKVELVFSATPEKIQGSEHLYNDHGVIVDYNTTDPLIRWDSYENLSADGEVLHTQGPVDGSLYAKVRKKSSSDPGIPGGPQAIPATNSPDHSDHTLSVSSDSGHSTASARTDKTEERLAPGTRRGLSAQEKAELDQLLSGFGLEDPGSSLKEMTDARSKYSGTRHVVPAQVHVNGDAALKDRETDILDDEMPHHDLHSVDSLGTLSSSEGPQSAHLGPFTCHKSSQNSLLSDGFGSNVGEDPQGTLVPDLGLGMDGPYERERTFGSREPKQPQPLLRKPSVSAQMQAYGQSSYSTQTWVRQQQMVVAHQYSFAPDGEARLVSRCPADNPGLVQAQPRVPLTPTRGTSSRVAVQRGVGSGPHPPDTQQPSPSKAFKPRFPGDQVVNGAGPELSTGPSPGSPTLDIDQSIEQLNRLILELDPTFEPIPTHMNALGSQANGSVSPDSVGGGLRASSRLPDTGEGPSRATGRQGSSAEQPLGGRLRKLSLGQYDNDAGGQLPFSKCAWGKAGVDYAPNLPPFPSPADVKETMTPGYPQDLDIIDGRILSSKESMCSTPAFPVSPETPYVKTALRHPPFSPPEPPLSSPASQHKGGREPRSCPETLTHAVGMSESPIGPKSTMLRADASSTPSFQQAFASSCTISSNGPGQRRESSSSAERQWVESSPKPMVSLLGSGRPTGSPLSAEFSGTRKDSPVLSCFPPSELQAPFHSHELSLAEPPDSLAPPSSQAFLGFGTAPVGSGLPPEEDLGALLANSHGASPTPSIPLTATGAADNGFLSHNFLTVAPGHSSHHSPGLQGQGVTLPGQPPLPEKKRASEGDRSLGSVSPSSSGFSSPHSGSTISIPFPNVLPDFSKASEAASPLPDSPGDKLVIVKFVQDTSKFWYKADISREQAIAMLKDKEPGSFIVRDSHSFRGAYGLAMKVATPPPSVLQLNKKAGDLANELVRHFLIECTPKGVRLKGCSNEPYFGSLTALVCQHSITPLALPCKLLIPERDPLEEIAESSPQTAANSAAELLKQGAACNVWYLNSVEMESLTGHQAIQKALSITLVQEPPPVSTVVHFKVSAQGITLTDNQRKLFFRRHYPVNSVIFCALDPQDRKWIKDGPSSKVFGFVARKQGSATDNVCHLFAEHDPEQPASAIVNFVSKVMIGSPKKV
partner: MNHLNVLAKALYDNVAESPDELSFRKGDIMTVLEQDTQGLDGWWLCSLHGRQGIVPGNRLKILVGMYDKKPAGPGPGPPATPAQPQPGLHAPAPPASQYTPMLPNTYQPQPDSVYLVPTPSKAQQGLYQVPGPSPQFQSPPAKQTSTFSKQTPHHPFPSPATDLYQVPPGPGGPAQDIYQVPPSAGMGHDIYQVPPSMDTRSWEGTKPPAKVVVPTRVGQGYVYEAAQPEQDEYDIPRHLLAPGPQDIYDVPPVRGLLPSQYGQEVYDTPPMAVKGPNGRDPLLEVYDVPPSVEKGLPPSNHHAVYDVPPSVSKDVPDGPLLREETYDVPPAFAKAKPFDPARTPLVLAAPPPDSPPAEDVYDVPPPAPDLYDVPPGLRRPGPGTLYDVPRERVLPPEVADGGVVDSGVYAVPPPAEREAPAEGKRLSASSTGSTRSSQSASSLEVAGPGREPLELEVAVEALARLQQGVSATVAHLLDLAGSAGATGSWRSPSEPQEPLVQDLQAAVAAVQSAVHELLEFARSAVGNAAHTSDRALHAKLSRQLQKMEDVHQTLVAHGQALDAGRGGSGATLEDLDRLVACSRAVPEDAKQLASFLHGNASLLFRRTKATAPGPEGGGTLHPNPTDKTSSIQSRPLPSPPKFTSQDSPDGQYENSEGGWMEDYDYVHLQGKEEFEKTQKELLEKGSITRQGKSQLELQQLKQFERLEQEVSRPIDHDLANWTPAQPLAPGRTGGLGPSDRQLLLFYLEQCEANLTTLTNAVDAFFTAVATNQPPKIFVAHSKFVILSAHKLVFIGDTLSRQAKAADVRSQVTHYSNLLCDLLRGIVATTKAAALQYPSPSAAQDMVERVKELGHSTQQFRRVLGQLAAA

The experiment covers variants of B1. The settings on record: with bcar1_human BCAR1, P56945.
Regarding Y1173F;Y1206F, the “effect of a mutation on the interaction” value is reported as “decreasing interaction”.
